According to patent publication US20050079503A1, “Binding domain of Siah (seven in absentia homolog) protein” (PETER MacCALLUM CANCER INSTITUTE, ST. VINCENT'S INSTITUTE …, priority 2001, published 2005):
Several values for one entry are separate records, joined by “and”; a condition that tells them apart may be missing. Equal values may be shown once. No end group written: not given here. *: point of attachment. Biotin = O=C1N[C@H]2[C@H](CS[C@H]2CCCCC(=O)*)N1

Key:
Siah1a SBD = molecular target: T1, Siah1a SBD (Mus musculus, UniProt P61092); assay: Stoichiometry of the GST-PHYL108-130 / Siah1a SBD complex by gel filtration and N-terminal sequencing; assay type: binding; details: complex isolated on Superdex 200; after five cycles of N-terminal sequencing
T1 construct: isolating a complex of GST-PHYL108-130 and Siah1a SBD by gel filtration; made in house; host or cells: E. coli BL21DE3
T1 sequence (P61092 90-282 limits assumed): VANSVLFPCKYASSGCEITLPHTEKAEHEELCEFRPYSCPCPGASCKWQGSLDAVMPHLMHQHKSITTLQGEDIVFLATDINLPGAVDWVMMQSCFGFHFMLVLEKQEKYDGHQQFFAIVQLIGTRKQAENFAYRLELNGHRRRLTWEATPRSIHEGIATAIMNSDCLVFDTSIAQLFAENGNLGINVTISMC
Description: (§1) The stoichiometry of interaction was investigated by isolating a complex of GST-PHYL108-130 and Siah1a SBD by gel filtration on Superdex 200 and quantitating the components by N-terminal sequencing.

MBP-Siah = molecular target: T2, MBP-Siah (Mus musculus, UniProt P61092); assay: Competition assay: peptides as competitors of wild-type PHYL108-130 binding to Siah (96-well plate, anti-MBP detection); details: competition with immobilised GST-PHYL108-130 for MBP-Siah, 1 hour at room temperature; estimated from inhibition curves; read-out: IC50 (concentration at which 50% inhibition is observed)
T2 construct: made in house
T2 sequence (P61092 1-282): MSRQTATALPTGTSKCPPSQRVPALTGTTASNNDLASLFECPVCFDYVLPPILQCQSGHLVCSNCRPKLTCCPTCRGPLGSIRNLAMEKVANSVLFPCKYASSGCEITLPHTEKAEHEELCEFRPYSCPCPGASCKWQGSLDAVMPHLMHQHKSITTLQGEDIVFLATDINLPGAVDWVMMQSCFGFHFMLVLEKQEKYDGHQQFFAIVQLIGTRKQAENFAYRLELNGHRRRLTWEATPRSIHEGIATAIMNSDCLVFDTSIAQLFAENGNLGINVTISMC
Procedure: Mutant peptides were used in a competition assay in which they were tested as competitors of wild-type PHYL 108-130 binding to Siah. GST-PHYL108-130 was immobilised in wells of a 96-well plate and MBP-Siah was bound for 1 hour at room temperature, in the presence of various concentrations of mutant peptides. After binding and washing, the amount of bound MBP-Siah was quantitated in a two antibody sandwich of anti-MBP antibody, followed by HRP-conjugated goat anti-rabbit antibody, using ABTS as substrate. IC50 (the concentration at which 50% inhibition is observed) values were estimated from the individual inhibition curves.
In order to test this hypothesis Applicants systematically mutated the PHYL peptide, utilising the solid phase pin technology of Mimotopes (Clayton, Victoria, Australia). A full set of peptides, with alanine substituted at each position in the peptide, was synthesised. At positions where a native alanine occurred, glycine was substituted. Mutant peptides were screened for their ability to compete with the binding between Siah and PHYL peptide, then peptides of interest were investigated further utilising surface plasmon resonance.
The initial screen of peptides yielded IC50 values of approximately 50-100 nM for wild-type peptide or peptides with ineffective mutations. […]

MBP-Siah1a = molecular target: T3, MBP-Siah1a (Mus musculus, UniProt P61092); assay: Surface plasmon resonance (Biacore) binding of PHYL108-130 to Siah; details: Biacore 2000, peptide immobilised on chip, MBP-Siah1a as analyte, read-out: affinity constant
T3 construct: made in house; host or cells: pMalC2 plasmid
T3 sequence (P61092 1-282): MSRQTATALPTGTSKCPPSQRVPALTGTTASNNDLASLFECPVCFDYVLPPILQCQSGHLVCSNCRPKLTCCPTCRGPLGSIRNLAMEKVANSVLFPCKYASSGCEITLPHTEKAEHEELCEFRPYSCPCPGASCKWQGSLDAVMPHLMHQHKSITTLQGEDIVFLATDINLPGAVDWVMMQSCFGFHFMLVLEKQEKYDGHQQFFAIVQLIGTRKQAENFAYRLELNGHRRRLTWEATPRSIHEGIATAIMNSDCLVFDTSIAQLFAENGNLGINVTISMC
Description: (§2) The binding kinetics for Siah interaction with PHYL108-130 were monitored using surface plasmon resonance on a Biacore 2000. The biotinylated PHYL108-130 peptide was captured on the chip surface by immobilised neutravidin, and MBP-Siah1a was used as analyte.
(§3) To determine binding affinities, synthetic PHYL peptide was immobilised to a C5 BIAcore chip using two different strategies (direct chemical coupling through the free amino group on Lysine113 and binding to coupled avidin via an N-terminal biotin on the peptide) and interaction was measured directly by surface plasmon resonance. This method facilitated the measurement of association and dissociation rates, and the determination of an affinity constant (FIG. 26).

Siah = molecular target: T4, Siah (Mus musculus, UniProt P61092); assay: Interaction studies using bacterially expressed proteins; assay type: binding
T4 construct: made in house; host or cells: bacteria
T4 sequence (P61092 1-282): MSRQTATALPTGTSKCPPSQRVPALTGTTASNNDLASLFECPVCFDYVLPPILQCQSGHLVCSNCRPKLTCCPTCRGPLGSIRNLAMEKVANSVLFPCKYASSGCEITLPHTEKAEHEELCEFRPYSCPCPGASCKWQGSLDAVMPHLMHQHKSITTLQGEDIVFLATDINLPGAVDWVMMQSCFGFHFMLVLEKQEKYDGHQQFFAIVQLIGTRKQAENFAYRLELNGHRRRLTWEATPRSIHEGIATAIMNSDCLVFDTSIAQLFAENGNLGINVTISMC
Description: PHYL is known to interact and function with SINA, the Drosophila orthologue of mammalian Siah, in the targeted degradation of the transcriptional repressor tramtrack 88 (TTK88). Applicants have shown that it interacts similarly with mammalian Siah.

[1] = molecular target: T5, MBP-Siah1a-ZC fusion protein (mouse, UniProt P61092 80-282); assay: ELISA: biotinylated plectin peptide captured on Neutravidin-coated plate, bound MBP fusion detected with anti-MBP and HRP antibody, ABTS, A405
T5 construct: range 80-282; ZC = zinc fingers plus C-terminus, residues 80-282 of Siah1a, fused to MBP; also called Siah SBD; not shown: linker not described
T5 sequence (looked up): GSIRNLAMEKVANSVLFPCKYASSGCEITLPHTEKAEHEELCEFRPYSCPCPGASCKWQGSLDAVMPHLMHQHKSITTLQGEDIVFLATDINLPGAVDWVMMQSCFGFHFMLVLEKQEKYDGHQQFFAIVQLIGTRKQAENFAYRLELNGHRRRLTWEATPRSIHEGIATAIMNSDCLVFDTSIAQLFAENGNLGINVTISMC
Procedure: Siah SBD binding to the plectin peptide (Biotin-[…]-NH2 corresponding to residues 95-117 of human plectin) was assessed by capturing biotinylated peptide on a 96-well plate coated with 0.5 μg Neutravidin per well. Peptide was captured for 30 min at room temperature at a concentration of 4 μg/ml. MBP-Siah1a-ZC fusion protein was bound to the peptide for 50 min at room temperature (or the controls of buffer alone (PBS/tween 20) or mutant MBP-Siah1a-ZC containing a Leu211 to Arg mutation). Bound protein was quantitated by rabbit anti-MBP antibody (1:300 dilution), then HRP conjugated goat-anti-rabbit antibody. Detection utilised ABTS substrate read at A405.

[2] = molecular target: T6, MBP-Siah1a fusion protein (mouse, UniProt P61092 1-282, limits assumed); assay: SPR, Biacore 2000; biotinylated peptide captured on immobilised neutravidin, MBP-Siah1a as analyte
T6 construct: not shown: linker to Siah1a not described
T6 sequence (looked up): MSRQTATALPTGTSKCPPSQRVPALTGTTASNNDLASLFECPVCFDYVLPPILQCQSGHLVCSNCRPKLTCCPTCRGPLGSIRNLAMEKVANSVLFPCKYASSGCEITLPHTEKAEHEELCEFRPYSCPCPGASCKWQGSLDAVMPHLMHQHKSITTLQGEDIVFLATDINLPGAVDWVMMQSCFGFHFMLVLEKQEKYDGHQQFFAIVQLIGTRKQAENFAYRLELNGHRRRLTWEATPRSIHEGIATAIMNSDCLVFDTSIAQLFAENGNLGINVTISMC
Description: as §2, §3

GST-PHYL108-130 = molecular target: T7, GST-PHYL108-130 (Drosophila); assay: complex isolated by gel filtration on Superdex 200, components quantitated by N-terminal sequencing (five cycles)
T7 construct: also called PHYL peptide as a fusion protein with glutathione-S-transferase; not shown: glutathione-S-transferase (GST) fusion partner
T7 chain: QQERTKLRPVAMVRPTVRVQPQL
Description: as §1

[3] = molecular target: the molecule itself; assay: size exclusion chromatography (self-association of the Siah1a binding domain)

Molecule: GST-PHYL108-130: PHYL 23-residue peptide expressed as a fusion with glutathione-S-transferase (GST) (QQERTKLRPVAMVRPTVRVQPQL; not fully specified (N-terminus); also: GST fusion)
- average ratio of Siah binding domain to GST-PHYL108-130 residues (Siah1a SBD): 2.34±0.38

Molecule: QQERTKLRPVAMVRPTVRVQPQL [PHYL108-130]
- IC50 (MBP-Siah): 50 to 100 nM
- Kd (MBP-Siah1a): ~180 nM and 180 nM

Molecule: DCC: deleted in colorectal cancer (DCC)
- affinity of interaction with Siah (in words) (Siah): lower affinity

B1: plectin peptide (Biotin-ASLQRVRRPVAMVMPARRTPHVQ-NH2) (peptide)
peptide: Biotin-ASLQRVRRPVAMVMPARRTPHVQ-NH2
SMILES: CSCC[C@H](NC(=O)[C@H](C)NC(=O)[C@@H](NC(=O)[C@@H]1CCCN1C(=O)[C@H](CCCNC(=N)N)NC(=O)[C@H](CCCNC(=N)N)NC(=O)[C@@H](NC(=O)[C@H](CCCNC(=N)N)NC(=O)[C@H](CCC(N)=O)NC(=O)[C@H](CC(C)C)NC(=O)[C@H](CO)NC(=O)[C@H](C)NC(=O)CCCC[C@@H]1SC[C@@H]2NC(=O)N[C@@H]21)C(C)C)C(C)C)C(=O)N[C@H](C(=O)N[C@@H](CCSC)C(=O)N1CCC[C@H]1C(=O)N[C@@H](C)C(=O)N[C@@H](CCCNC(=N)N)C(=O)N[C@@H](CCCNC(=N)N)C(=O)N[C@H](C(=O)N1CCC[C@H]1C(=O)N[C@@H](Cc1c[nH]cn1)C(=O)N[C@H](C(=O)N[C@@H](CCC(N)=O)C(N)=O)C(C)C)[C@@H](C)O)C(C)C
notes: also called synthetic peptide corresponding to residues 95-117 of human plectin
- binding result [1]: binds

Molecule: Biotin-QQERTKLRPVAMVRPTVRVQPQL (also called synthetic PHYL peptide) [biotinylated PHYL108-130 peptide]
- Kd [2]: 180 nM

B2: Kid: kinesin-like DNA-binding protein (Kid) (protein, UniProt Q14807 1-665, looked up)
Kinesin-like protein KIF22: MAAGGSTQQRRREMAAASAAAISGAGRCRLSKIGATRRPPPARVRVAVRLRPFVDGTAGASDPPCVRGMDSCSLEIANWRNHQETLKYQFDAFYGERSTQQDIYAGSVQPILRHLLEGQNASVLAYGPTGAGKTHTMLGSPEQPGVIPRALMDLLQLTREEGAEGRPWALSVTMSYLEIYQEKVLDLLDPASGDLVIREDCRGNILIPGLSQKPISSFADFERHFLPASRNRTVGATRLNQRSSRSHAVLLVKVDQRERLAPFRQREGKLYLIDLAGSEDNRRTGNKGLRLKESGAINTSLFVLGKVVDALNQGLPRVPYRDSKLTRLLQDSLGGSAHSILIANIAPERRFYLDTVSALNFAARSKEVINRPFTNESLQPHALGPVKLSQKELLGPPEAKRARGPEEEEIGSPEPMAAPASASQKLSPLQKLSSMDPAMLERLLSLDRLLASQGSQGAPLLSTPKRERMVLMKTVEEKDLEIERLKTKQKELEAKMLAQKAEEKENHCPTMLRPLSHRTVTGAKPLKKAVVMPLQLIQEQAASPNAEIHILKNKGRKRKLESLDALEPEEKAEDCWELQISPELLAHGRQKILDLLNEGSARDLRSLQRIGPKKAQLIVGWRELHGPFSQVEDLERVEGITGKQMESFLKANILGLAAGQRCGAS
- affinity of interaction with Siah (in words) (Siah): lower affinity

B3: Siah1a binding domain (purified tryptic fragment) (other, mouse, UniProt P61092 90-282, looked up)
chain: VANSVLFPCKYASSGCEITLPHTEKAEHEELCEFRPYSCPCPGASCKWQGSLDAVMPHLMHQHKSITTLQGEDIVFLATDINLPGAVDWVMMQSCFGFHFMLVLEKQEKYDGHQQFFAIVQLIGTRKQAENFAYRLELNGHRRRLTWEATPRSIHEGIATAIMNSDCLVFDTSIAQLFAENGNLGINVTISMC
modifications: two 2-mercaptoethanol adducts on cysteines in the purified form (21,838 Da; 21,685 Da when reduced)
notes: Dimer by size exclusion chromatography and in the crystal; Start residue must be found by locating VANSV on Siah1a; also called Siah1a SBD
- average ratio of Siah binding domain to GST-PHYL108-130 residues (stoichiometry) (GST-PHYL108-130): 2.34 mol/mol
- binding result [3]: binds

B4: SIP: Siah-interacting protein (SIP) (protein, UniProt Q9HB71 2-228, looked up)
Calcyclin-binding protein: ASEELQKDLEEVKVLLEKATRKRVRDALTAEKSKIETEIKNKMQQKSQKKAELLDNEKPAAVVAPITTGYTVKISNYGWDQSDKFVKIYITLTGVHQVPTENVQVHFTERSFDLLVKNLNGKSYSMIVNNLLKPISVEGSSKKVKTDTVLILCRKKVENTRWDYLTQVEKECKEKEKPSYDTETDPSEGLMNVLKKIYEDGDDDMKRTINKAWVESREKQAKGDTEF
- affinity of interaction with Siah (in words) (Siah): lower affinity

B5: OBF-1: Oct-binding factor 1 (OBF-1) (protein, UniProt Q16633 1-256, looked up)
POU domain class …: MLWQKPTAPEQAPAPARPYQGVRVKEPVKELLRRKRGHASSGAAPAPTAVVLPHQPLATYTTVGPSCLDMEGSVSAVTEEAALCAGWLSQPTPATLQPLAPWTPYTEYVPHEAVSCPYSADMYVQPVCPSYTVVGPSSVLTYASPPLITNVTTRSSATPAVGPPLEGPEHQAPLTYFPWPQPLSTLPTSTLQYQPPAPALPGPQFVQLPISIPEPVLQDMEDPRRAASSLTIDKLLLEEEDSDAYALNHTLSVEGF
- affinity of interaction with Siah (in words) (Siah): lower affinity
